Laboratory results from the RNAGym collection of RNA variant scans (doi:10.1073/pnas.2313332121).
Variants at the floor of the assay were thinned out.

B1: TPR 5TU (parent)
chain: GGAUCUUCUCGAUCUAACAAAAAAGACAAAUCUGCCACAAAGCUUGAGAGCAUCUUCGGAUGCAGAGGCGGCAGCCUUCGGUGGCGCGAUAGCGCCAACGUUCUCAACUAUGACACGCAAAACGCGUGCUCCGUUGAAUGGAGUUUAUCAUG

Variants of: B1
Test: polymerase ribozyme fitness, log enrichment relative to wild type (log ratio); higher = more active; in vitro selection for triplet polymerase activity
In short: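 Mutant libraries of each subunit of a heterodimeric triplet polymerase ribozyme were built by PCR and transcribed. Each library went through one round of in vitro selection in triplicate: annealing with biotinylated primer, partner subunit and triplets, frozen incubation at −7 °C, gel excision of extended constructs, streptavidin-bead capture and RT-PCR. Input and output libraries were Illumina-sequenced; only genotypes with ≥10 input reads and ≥1 read per output were kept. Fitness is log2(genotype enrichment/wild-type enrichment), using inverse-variance-weighted replicate averages.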

Variant | polymerase ribozyme fitness (log ratio)
U9G A23U G58A G59U C79A G81U C85A A120C U139C | ≤ -4.2
U9C C57G G140C | ≤ -4.2
C10A A21U G84A A97U A113G | ≤ -4.2
U9G A17C A52C G84A C118A | ≤ -4.2
U9G G11C C76A G92C U134C U139G A150G | ≤ -4.2
U9C U53A G58U A60C A66C A147C | ≤ -4.2
U9C U44A G46C A47G C85U A121G | ≤ -4.2
U9A U55A C85U G94A C114U G140C | ≤ -4.2
U9C A22C C96G C99G G128U | ≤ -4.2
U9G A20C A29U C35U A47C C54U U56A C96A U130G | ≤ -4.2
U9C A66G C76G G92U C114A | ≤ -4.2
U9G C27G U31G U61G C75G G94A C105U | ≤ -4.2
U9C A47C A60G G84C C93A C105G A113U U127C | ≤ -4.2
U9G A24U U33C G143C A147C | ≤ -4.2
U9C C14G | ≤ -4.2
C10A C27G U77C G83A | ≤ -4.2
U9G A40C | -3.48
U9G C35A A39G C87A C125U G143A U151A | -3.88
U9G C69A U102C | ≤ -4.2
U9A U31G G58U A73U C123U U135A | ≤ -4.2
U9G C10A C43U C57G C99A | ≤ -4.2
U9G U31G G42U U53A G58C | ≤ -4.2
C10A C14U C93G C149U | ≤ -4.2
C10A A22U A24G A40C A52C C57U G70A C93U A147C | -4.05

Variant | polymerase ribozyme fitness (log ratio)
U9C A21U G48A A91U C99U | ≤ -4.2
U9C C54U C85A G136C | ≤ -4.2
U9G A19C U55A | ≤ -4.2
U9G U53A | -3.81
U9C U15G C54A G67C G84A G117A | ≤ -4.2
U9G C10G C87G C93U G124C | ≤ -4.2
C10A A12G A22G U56A C85G | ≤ -4.2
U9G A37U C57U C85U G128A G141A U146A | ≤ -4.2
U9C A17U A30G G42C C51A C87U | ≤ -4.2
U9G C27A C96A | ≤ -4.2
U9G A21C C35U C85G | ≤ -4.2
U9G A49U C85U | ≤ -4.2
U9C U56A C76A C108G G143U A150G | ≤ -4.2
U9G A16G C18A C63U | ≤ -4.2
U9C G25C U56A C93U C99G | ≤ -4.2
U9C A26G U55A A122U | ≤ -4.2
C10A C79A A97G A150G | ≤ -4.2
C10A A16U U33A A121U G141C | -4.19
U9C A16U A21G G70C G92U G143U U145G | ≤ -4.2
C10A A23C G50A C75G C95U C96A C123G | ≤ -4.2
U9G C18U U45G G48A C76U | ≤ -4.2
U9G A23U G34C C57A C93A | ≤ -4.2
U9C A16U A19U U31A C35U A49U | ≤ -4.2
C10A A22G G46A C54U C75G G83U C95A | ≤ -4.2

Variant | polymerase ribozyme fitness (log ratio)
U9G U33G G59A G140U | ≤ -4.2
U9C A73U | -4.1
U9G A23C U56A A73U G86C | ≤ -4.2
C10A A23C G25C G92A A113U | ≤ -4.2
C10A C85G G141U | ≤ -4.2
U9G U15G C27G U31A C38A A66C G67A C87U C99G G143C | ≤ -4.2
U9G A20U G84A U102C A115G | ≤ -4.2
U9C C38U C51U A52G G74C C85G G143C U145A | ≤ -4.2
C10A C35U A97U | ≤ -4.2
C10A A19C A29U C36U C57U G58A A66C G67C U82G G84U U109A | ≤ -4.2
U9G U15C C87G A113G A142G | ≤ -4.2
U9G A142G | ≤ -4.2
C10A A23U C35G C95G G128A | ≤ -4.2
C10A C95U | -3.57
C10A A28U G58A C96U A122G G124C | ≤ -4.2
U9G G86A A138G | ≤ -4.2
U9G A29C C32G G58C C76A C79A C118G G141C G143A | ≤ -4.2
U9G U77C C85A C108U A120C G141C | ≤ -4.2
U9C A49G A106G C116U G136A A137C G143A U144C U148G | ≤ -4.2
U9G C35U A52C U61A C87A U101C C125A | ≤ -4.2
C10A C85U G133C U134A U146G | ≤ -4.2
U9G G92A C116U C125U U134C | ≤ -4.2
U9C A29U U31C U44A C75A C85A G141A | ≤ -4.2
U9C A47U | -3.94

Variant | polymerase ribozyme fitness (log ratio)
U9C U56A G83A C87U | ≤ -4.2
U9C U15G C93A | ≤ -4.2
C10A C76G G81A G86U A137U | ≤ -4.2
U9C U55G | -3.53
C10A A12U A41G C96A A107C C114A | ≤ -4.2
U9G C96U | -3.76
U9G A73U C87U U102A C105G C108A | ≤ -4.2
U9G G50A G83A G133U | ≤ -4.2
U9C C38U A52U C75G G92U G94A G136U U144G | ≤ -4.2
U9G C87U | -4.11
C10A A20G A23C A24U A26G C85G A91G G100U A115G | ≤ -4.2
U9G A52G C72G C96U C105A A115G U127C G133U | ≤ -4.2
U9G C27G A28C A47U G70A A91C | ≤ -4.2
U9G U145C | -3.95
C10A A39U G86C U109G U130C | ≤ -4.2
U9G A29G A47C U53A U55G G124C G133C G143A | ≤ -4.2
C10A C85U | -4.01
U9G C36U C76A G94A | ≤ -4.2
U9G A29U U53G U55G C93A A137C | ≤ -4.2
U9G A16U A64U C85G U135C U144G A150U | ≤ -4.2
U9G C38U C54U C57A A60G | ≤ -4.2
U9G U139C | ≤ -4.2
U9G A47C C57A A66C C87A A89U A120U A121U C123A C125U U144A | ≤ -4.2
U9C A28C C36A C87U C116U | ≤ -4.2

Variant | polymerase ribozyme fitness (log ratio)
C10A C51U C93U U111G | ≤ -4.2
U9G | -2.82
U9C | -1.27
U9C A17U A89G A122G | ≤ -4.2
U9G A16C A30C G34A G58U C93G C105A A110G C118U C149U | -4.17
C10A A16G C32G G50A G133C | ≤ -4.2
U9C A23U G58U A73U C79A G83C G86A A107G G141C | ≤ -4.2
C10A A20G A41G G46A A47C C57U C85G G133U | ≤ -4.2
U9G A29C G59A C76U C87G A120C | ≤ -4.2
U9C A22G A23C G25C G83C | ≤ -4.2
U9G C85A C103A C118G U134A | ≤ -4.2
U9G C54G G62A C75A G81C C93G C96A C103G C118U | ≤ -4.2
U9C U33G A52C C93G A110U | ≤ -4.2
U9C A12G A21U G42U C51G U53A C96A | ≤ -4.2
U9C A12C C57U C63U G74C A119G U146G | ≤ -4.2
C10A A91G C93U U144G | ≤ -4.2
U9G C32A U55A C57U C93G A142C U148C | -4.04
U9C G50C C75G C85G C125A | ≤ -4.2
U9C C10G C36G U55A G84A G126A | ≤ -4.2
C10A C69U | ≤ -4.2
U9G C10A C18U A66U G81U C96U | ≤ -4.2
U9C G71A C95U U151C | ≤ -4.2
U9G G46C C76A C85G U90G A121U | ≤ -4.2
U9G C10G A17G A22G A23U G50A A73G | ≤ -4.2

Variant | polymerase ribozyme fitness (log ratio)
C10A C32A U56G G80C U82G C87U A98U | ≤ -4.2
U9G C14A C85U G141U | -4.19
U9G C51G G84A G141C | ≤ -4.2
U9C A28U A30C U61A G88A A91U G92A A119U | ≤ -4.2
U9C A30G A66C G84A A150C | ≤ -4.2
C10A A41G C103A A110G | ≤ -4.2
U9C A37G G42C A73U G92C C103U | ≤ -4.2
C10A A12U G80C G94A | ≤ -4.2
U9G G74A G84A A107G | ≤ -4.2
U9C A22C C54U G71U G84A C95A A98U C108A C114U A115C | ≤ -4.2
U9C C35G A39U C103G | ≤ -4.2
U9C A22U U53G C79U | ≤ -4.2
C10A C54A | ≤ -4.2
U9G C87G C93U C125A | ≤ -4.2
U9G C85A | -3.76
C10A A41U C51G C87A | ≤ -4.2
U9A U55G U78G G143C | ≤ -4.2
U9G C32U C38U A49C G58A A60U C87G C95U G133U A142U | ≤ -4.2
U9G G25C A47G C87A G92U C114A | ≤ -4.2
C10A A12G A23C U55A | ≤ -4.2
U9A U31G U53G G88A G126U A150C | ≤ -4.2
U9G G88C C99A A119U | ≤ -4.2
U9G G48C G62A U82A G84U | ≤ -4.2
U9C A23U A24G C38G A89G A91U | ≤ -4.2

Variant | polymerase ribozyme fitness (log ratio)
U9G C18G A30U C35G C87G A147G | ≤ -4.2
U9C A12U C27G G48A G74A G88A | ≤ -4.2
U9C A30U C35A U82A A91U C93A G140U G143A U151G | ≤ -4.2
C10A C14G U77A C85A G92A A110G A122G | ≤ -4.2
C10A A106G G126U | ≤ -4.2
C10A A24C G71A U77G G94A C99A C125U G140C | ≤ -4.2
C10A C32G U44G C57U U82G G83A | ≤ -4.2
C10A A17U C36U C76U G84U U101A U104G C108U A121C | ≤ -4.2
C10A C54A A91C C105A C129A G143C | ≤ -4.2
U9G C32G G71A | ≤ -4.2
U9C C76U | -2.74
C10A A28G U56G C85A | ≤ -4.2
U9G A20C C32G A89C U144A | ≤ -4.2
U9G A12C A16U U31A G62A G71A G80C C87U C108U | ≤ -4.2
U9G U56A | -4.07
U9C A22C C54U C57U G100U C105G | ≤ -4.2
U9C A16G U44G A49G A64G C105G G124A | ≤ -4.2
U9G G34U C85A U139A | ≤ -4.2
U9C C14U C76A C87G | ≤ -4.2
U9G A17U G94A | ≤ -4.2
C10A C85G C125A | ≤ -4.2
U9G A16U G80A G83C | -4.08
U9C C10U A16U A19C C85G G94C C105U A106U | ≤ -4.2
